Tests used:
hCD64 (human) = hCD64 (human) (UniProt P12314); experiment: method not stated (Table 9, 'µM Kd')
hCD16a-V158 (human) = hCD16a-V158 (human) (UniProt P08637); experiment: method not stated (Table 9, 'µM Kd')
hCD16a-F158 (human) = hCD16a-F158 (human) (UniProt P08637); experiment: method not stated (Table 9, 'µM Kd')
hCD32b (human) = hCD32b (human) (UniProt P31994); experiment: method not stated (Table 9, 'µM Kd')
hCD32a-R131 (human) = hCD32a-R131 (human) (UniProt P12318); experiment: method not stated (Table 9, 'µM Kd')
Sequence of hCD32a-R131 (human) (P12318 36-218 H167R limits assumed): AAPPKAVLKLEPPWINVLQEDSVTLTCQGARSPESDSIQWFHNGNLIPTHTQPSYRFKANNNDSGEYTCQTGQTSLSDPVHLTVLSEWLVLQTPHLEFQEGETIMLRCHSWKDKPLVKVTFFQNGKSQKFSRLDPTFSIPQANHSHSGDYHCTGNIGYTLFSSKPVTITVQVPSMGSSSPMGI

hCD32a-H131 (human) = hCD32a-H131 (human) (UniProt P12318); experiment: method not stated (Table 9, 'µM Kd')
Sequence of hCD32a-H131 (human) (P12318 36-218 limits assumed): as the sequence (P12318 36-218 H167R limits assumed) above, with R132H counted along it

[1] = biological target: human ICOS (huICOS), on activated human CD4+ T cells (human) (UniProt Q9Y6W8); experiment: cell-based or functional assay
huICOS/Fc [2] = biological target: T1, huICOS/Fc (human, UniProt Q9Y6W8 21-140); experiment: SPR binning: reference antibody on chip, test antibody pre-incubated with huICOS/Fc
T1 construct: also called huICOS polypeptide construct; human ICOS antigen; not shown: Fc part
T1 sequence: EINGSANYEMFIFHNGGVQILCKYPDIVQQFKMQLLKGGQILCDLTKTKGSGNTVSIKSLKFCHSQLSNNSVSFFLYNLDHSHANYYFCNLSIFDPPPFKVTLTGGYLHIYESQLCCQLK

huICOS/Fc [3] = biological target: T1, huICOS/Fc; experiment: HDX-MS, ICOS-Fc mixed with mAb at 1:1 ratio
Procedure: ICOS-Fc was mixed with mAbs at 1:1 ratio and HDX-MS was run for one minute, 10 minutes, 4 hours in duplicate.

[4] = biological target: T2, human ICOS Fc (R&D Systems, 169-CS-050) (human, UniProt Q9Y6W8 21-140); experiment: SPR (Biacore T200), 37 °C, human ICOS Fc captured by anti-hFc on a CM4 chip, Fab as analyte, 1:1 Langmuir model
T2 construct: Bought construct; also called human ICOS with an Fc tag; not shown: Fc tag
T2 sequence: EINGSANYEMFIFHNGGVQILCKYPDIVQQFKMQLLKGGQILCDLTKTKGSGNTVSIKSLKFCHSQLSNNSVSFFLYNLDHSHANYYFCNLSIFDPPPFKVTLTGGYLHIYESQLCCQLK

Sequence of hCD32b (human) (P31994 43-217 limits assumed): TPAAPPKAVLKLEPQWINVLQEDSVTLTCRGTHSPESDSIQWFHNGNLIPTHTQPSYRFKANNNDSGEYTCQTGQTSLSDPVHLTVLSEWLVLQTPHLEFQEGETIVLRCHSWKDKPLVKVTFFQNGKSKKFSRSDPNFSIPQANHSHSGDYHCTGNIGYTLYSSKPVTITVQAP
Sequence of hCD64 (human) (P12314 16-288 limits assumed): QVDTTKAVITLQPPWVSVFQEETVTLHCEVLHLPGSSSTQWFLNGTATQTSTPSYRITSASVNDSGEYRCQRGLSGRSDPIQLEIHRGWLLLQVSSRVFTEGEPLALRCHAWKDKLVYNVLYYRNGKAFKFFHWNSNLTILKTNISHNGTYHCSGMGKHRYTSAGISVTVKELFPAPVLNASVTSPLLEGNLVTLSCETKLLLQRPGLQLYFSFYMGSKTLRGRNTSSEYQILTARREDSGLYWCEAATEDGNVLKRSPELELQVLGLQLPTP
Sequence of hCD16a-F158 (human) (P08637 17-208 limits assumed): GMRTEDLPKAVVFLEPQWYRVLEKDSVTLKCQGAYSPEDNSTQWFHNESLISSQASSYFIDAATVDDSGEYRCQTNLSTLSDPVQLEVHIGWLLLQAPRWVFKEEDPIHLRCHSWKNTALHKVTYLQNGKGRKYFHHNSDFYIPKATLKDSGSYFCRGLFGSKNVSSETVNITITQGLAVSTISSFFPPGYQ
Sequence of hCD16a-V158 (human) (P08637 17-208 F176V limits assumed): as the sequence (P08637 17-208 limits assumed) above, with F160V counted along it

## human IgG1f (wild type), as in Table 9 (antibody)
hCD64 (human)
  Kd: 0.2 µM
hCD16a-V158 (human)
  Kd: 97 µM
hCD16a-F158 (human)
  Kd: 200 µM
hCD32b (human)
  Kd: 3400 µM
hCD32a-R131 (human)
  Kd: 960 µM
hCD32a-H131 (human)
  Kd: 530 µM

## human IgG1f-S267E, as in Table 9 (antibody)
hCD64 (human)
  Kd: 0.2 µM
hCD32b (human)
  Kd: 87 µM
hCD32a-R131 (human)
  Kd: 31 µM
hCD32a-H131 (human)
  Kd: 650 µM

## ICOS.4 (chimeric antibody with the variable regions of hamster antibody C398.4A and human IgG1f constant regions)
[1]
  EC50 of interferon-gamma secretion, CHO-OKT3-CD32 / CD4+CD25- T cell co-culture: 0.018 µg/mL

B1: 17C4 (antibody, V domains shown)
VH: QVTLRESGPALVKPTQTLTLTCTFSGFSLSTSGMCVSWIRQPPGKALEWLALIDWDDDKFYSTSLKTRLTISKDTSKNQVVLTMTNMDPVDTATYYCARMSTPTYYGLDVWGQGTTVTVSS
VL: DIQMTQSPSSLSASVGDRVTITCRASQGISSWLAWYQQKPEKAPKSLIYAASSLQSGVPSRFSGSGSGTDFTLTISSLQPEDFATYYCQQYNSYPLTFGGGTKVEIK
notes: Fully human hybridoma antibody
huICOS/Fc [2]
  binding result: binds

B2: 3E8 (antibody, V domains shown)
VH: QVQLVESGGGVVQPGMSLRLSCAASGFTFSTYGMQWVRQAPGKGLEWVTVIWHDGSHKDYADSVKGRFTISRDNSKNTMYLQMNSLRAEDTAVYYCARDRQTGEGYFDFWGQGTLVTVSS
VL: DIQMTQSPSSLSASVGDRVTITCRASQGISSWLAWYQQKPEKAPKSLIYAASSLQSGVPSRFSGSGSGTDFTLTISSLQPEDFATYYCQQYNSYPYTFGQGTKLEIK
notes: as for B1
huICOS/Fc [2]
  binding result: binds

B3: 9D5 (antibody, V domains shown)
VH: QITLKESGPTLVKPTQTLTLTCTFSGFSLGTSGLGVGWIRQPPGKALEWLAFIYWDDDKRYSPSLKSRLTITKDTSKNQVVLTMTNMDPVDTATYYCAHRRGFFDYWGQGTLVTVSS
VL: DIQMTQSPSSLSASVGDRVTITCRASQGISSWLAWYQQKPEKAPKSLIYAASSLQSGVPSRFSGSGSGTDFTLTISSLQPEDFATYYCQQYNSYPLTFGGGTKVEIK
notes: as for B1
huICOS/Fc [3]
  binding result: binds

B4: IgG-2644 (antibody, V domains shown)
VH: EVQLLESGGGLVQPGGSLRLSCEASGFIFKYYAMSWVRQAPGKGLEWVSGISGSGGSTYYADSVKGRFTISRDNSKHTLYLQMNSLRAEDTAVYYCAKDGDFDWIHYYYGMDVWGQGTTVTVSS
VL: AIQLTQSPSSLSASVGDRVTITCRASQGISSALAWYQQKPGKAPKLLIYDASSLESGVPSRFSGSGSGTDFTLTISSLQPEDFATYYCQQFNSYPHTFGGGTKVEIKR
notes: Human antibody from mRNA display, cloned into IgG expression vectors
huICOS/Fc [2]
  binding result: binds

B5: ICOS.33 IgG1f S267E Fab fragment (Lot PC-1804-04) (Fab, V domains shown)
VH: EVQLVESGGGLVKPGGSLRLSCAASGFTFSDYFMHWVRQAPGKGLEWVGVIDTKSFNYATYYSDLVKGRFTISRDDSKNTLYLQMNSLKTEDTAVYYCTATIAVPYYFDYWGQGTLVTVSS
VL: DIQMTQSPSSLSASVGDRVTITCQASQDISNYLSWYQQKPGKAPKLLIYYTNLLAEGVPSRFSGSGSGTDFTFTISSLQPEDIATYYCQQYYNYRTFGPGTKVDIKR
notes: Fab of m1; also called Fab fragment of ICOS.33 IgG1f S267E
[4]
  Kd: 0.052 to 0.065 µM

Reference: patent publication US20180289790A1 (Bristol-Myers Squibb, published 2018)
